What was measured:
[1] = target: MUC16 (CA125), native, membrane-bound on cancer cells (human (endogenous in OVCAR3 and HeLa)) (UniProt Q8WXI7); test: flow cytometry on cells; OVCAR3 cells in suspension incubated with HEK293T-derived culture supernatant containing soluble mesothelin; bound mesothelin detected with anti-FLAG mAb M2 and FITC-conjugated secondary Ab; culture medium alone as negative control
[2] = target: MUC16 (CA125), native, membrane-bound on cancer cells (human (endogenous in OVCAR3 and HeLa)) (UniProt Q8WXI7)
[3] = target: MUC16 (CA125), native, membrane-bound on cancer cells (human (endogenous in OVCAR3 and HeLa)) (UniProt Q8WXI7); remark: listed apart in the source

Substance | percent of cells positive for bound mesothelin (FLAG epitope tag) [1] [%] | reduction of the luciferase signal (tumor burden) of intraperitoneal OVCAR3 xenografts in NOD/SCID mice at 7 days of i.p. treatment with Meso-TR3 (control and TR3 groups did not respond) [2] [fold] | share of MUC16-positive cells in the HeLa cell pool after Meso-TR3 treatment, by flow cytometry (80% to 54%; non-targeted TR3 did not shift the ratio) [3] [%]
soluble mesothelin (FLAG tagged, GPI anchor-deleted mature form) (ligand) | 100 |  | 
Meso-TR3 (mesothelin-TR3 fusion protein) (from UniProt P50591 39-281; P50591 39-281; P50591 39-281) |  | 600 | > 30

Source: PMC3903436
